Test results: patent EP4296674A1 (Université Toulouse III - Paul Sabatier, dated 2023)

B5: HadA of Mycobacterium tuberculosis fused to an enhanced Green Fluorescent Protein (eGFP) tag at its N-terminus (other)
chain: MALSADIVGMHYRYPDHYEVEREKIREYAVAVQNDDAWYFEEDGAAELGYKGLLAPLTFICVFGYKAQAAFFKHANIATAEAQIVQVDQVLKFEKPIVAGDKLYCDVYVDSVREAHGTQIIVTKNIVTNEEGDLVQETYTTLAGRAGEDGEGFSDGAA

What was measured:
[1] = biological target: N-terminal polyHis-tagged HadD of Mycobacterium tuberculosis (Mycobacterium tuberculosis); assay: from the HadBD crystal structure
[2] = biological target: HadB protein of Mycobacterium tuberculosis (untagged) (Mycobacterium tuberculosis)
[3] = biological target: N-terminal polyHis-tagged HadD of Mycobacterium tuberculosis (Mycobacterium tuberculosis); assay: PDBePISA analysis of the HadBD crystal structure
[4] = biological target: T1, Cfp10-Ctrp fusion protein (Mycobacterium tuberculosis (Cfp10); …); assay: split-Trp assay in M. smegmatis ΔhisA, positive control pair
T1 chain: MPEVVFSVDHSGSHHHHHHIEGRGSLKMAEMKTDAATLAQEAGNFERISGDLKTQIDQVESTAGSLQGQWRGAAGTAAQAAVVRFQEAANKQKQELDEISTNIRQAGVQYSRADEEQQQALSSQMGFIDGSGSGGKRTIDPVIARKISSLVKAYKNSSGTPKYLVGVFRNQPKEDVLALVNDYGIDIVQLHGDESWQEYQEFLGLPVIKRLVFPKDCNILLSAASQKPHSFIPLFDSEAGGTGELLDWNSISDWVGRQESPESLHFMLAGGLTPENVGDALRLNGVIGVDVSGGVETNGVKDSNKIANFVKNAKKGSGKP

[5] = biological target: T2, HadC-Ctrp fusion protein (Mycobacterium tuberculosis (HadC); …); assay: as above
T2 chain: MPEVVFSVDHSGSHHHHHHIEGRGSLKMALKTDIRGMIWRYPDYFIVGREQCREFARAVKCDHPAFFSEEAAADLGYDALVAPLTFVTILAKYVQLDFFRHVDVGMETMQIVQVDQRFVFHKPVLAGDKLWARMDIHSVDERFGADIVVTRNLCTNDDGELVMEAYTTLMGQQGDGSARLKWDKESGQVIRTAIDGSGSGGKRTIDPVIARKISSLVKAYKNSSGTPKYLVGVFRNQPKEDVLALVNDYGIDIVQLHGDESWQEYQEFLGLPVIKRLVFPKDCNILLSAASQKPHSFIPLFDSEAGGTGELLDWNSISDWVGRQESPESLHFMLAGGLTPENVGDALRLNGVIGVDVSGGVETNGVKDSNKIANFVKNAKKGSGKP

[6] = biological target: T3, HadD-Ctrp fusion protein (C-terminal fragment of S. cerevisiae Trp1p fused to the C-terminal end of HadD of … (Mycobacterium tuberculosis (HadD); …); assay: split-Trp assay in M. smegmatis ΔhisA
T3 chain: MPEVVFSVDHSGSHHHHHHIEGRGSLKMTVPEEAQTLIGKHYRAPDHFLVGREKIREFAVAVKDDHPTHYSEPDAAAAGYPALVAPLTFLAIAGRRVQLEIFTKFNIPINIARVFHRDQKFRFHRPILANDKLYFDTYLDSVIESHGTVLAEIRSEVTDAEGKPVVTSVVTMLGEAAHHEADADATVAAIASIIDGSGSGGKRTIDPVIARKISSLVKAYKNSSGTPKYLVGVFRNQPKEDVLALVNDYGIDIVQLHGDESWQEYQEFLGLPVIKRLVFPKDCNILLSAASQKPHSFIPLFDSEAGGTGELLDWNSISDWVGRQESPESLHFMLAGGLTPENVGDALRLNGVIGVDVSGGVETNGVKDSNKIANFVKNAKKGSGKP

[7] = biological target: T3, HadD-Ctrp fusion protein (C-terminal …); assay: split-Trp assay in M. smegmatis ΔhisA, growth on medium without Trp
[8] = biological target: B5; assay: pull-down from M. bovis BCG on anti-GFP magnetic beads, nanoLC-MS/MS proteomics
[9] = biological target: T4, HadD of M. bovis BCG (BCG_0547c) (Mycobacterium bovis BCG, UniProt P64726 1-166); assay: as above
T4 sequence: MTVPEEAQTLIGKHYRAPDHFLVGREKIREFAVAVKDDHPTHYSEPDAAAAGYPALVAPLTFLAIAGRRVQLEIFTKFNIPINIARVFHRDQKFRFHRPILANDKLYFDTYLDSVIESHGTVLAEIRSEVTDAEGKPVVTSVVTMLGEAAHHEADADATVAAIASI

[10] = biological target: T5, HadC (Rv0637) (Mycobacterium tuberculosis, UniProt P9WFJ9 1-166); assay: as above
T5 sequence: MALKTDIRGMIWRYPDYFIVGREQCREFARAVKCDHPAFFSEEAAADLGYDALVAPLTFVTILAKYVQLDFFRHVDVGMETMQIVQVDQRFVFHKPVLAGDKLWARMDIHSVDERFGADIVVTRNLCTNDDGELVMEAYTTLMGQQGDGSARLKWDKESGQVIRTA

In the case of “HadB protein of Mycobacterium tuberculosis (untagged) (enzyme)”, the total buried surface at each heterodimer interface [1] is reported as 3840 A^2, the buried surface area [2] is reported as 525 A^2 and the ΔG (PDBePISA) [2] is reported as -5.8 kcal/mol. It also gave a surface of heterodimerization (PDBePISA) [3] of 1340 Å^2 and a ΔG of heterodimerization (PDBePISA) [3] of -11 kcal/mol.

B1: Ntrp-Esat6 fusion protein (other)
chain: MPEVVFSVDHSGSGTMYPYDVPDYASSVINFTGSSGPLVKVCGLQSTEAAECALDSDADLLGIICVPNRGGSGSGLKMTEQQWNFAGIEAAASAIQGNVTSIHSLLDEGKQSLTKLAAAWGGSGSEAYQGVQQKWDATATELNNALQNLARTISEAGQAMASTEGNVTGMFA
B1: binds [4].

B2: Ntrp-HadB fusion protein (N-terminal fragment of S. cerevisiae Trp1p fused to the N-terminal end of HadB of Mtb) (other)
chain: MPEVVFSVDHSGSGTMYPYDVPDYASSVINFTGSSGPLVKVCGLQSTEAAECALDSDADLLGIICVPNRGGSGSGLKMALREFSSVKVGDQLPEKTYPLTRQDLVNYAGVSGDLNPIHWDDEIAKVVGLDTAIAHGMLTMGIGGGYVTSWVGDPGAVTEYNVRFTAVVPVPNDGKGAELVFNGRVKSVDPESKSVTIALTATTGGKKIFGRAIASAKLA
B2: binds [5]; binds [6].

B3: Ntrp-HadDMtb fusion protein (other)
chain: SSVINFTGSSGPLVKVCGLQSTEAAECALDSDADLLGIICVPNRMTVPEEAQTLIGKHYRAPDHFLVGREKIREFAVAVKDDHPTHYSEPDAAAAGYPALVAPLTFLAIAGRRVQLEIFTKFNIPINIARVFHRDQKFRFHRPILANDKLYFDTYLDSVIESHGTVLAEIRSEVTDAEGKPVVTSVVTMLGEAAHHEADADATVAAIASI
B3: no binding [7].

B4: HadB protein of Mycobacterium tuberculosis (untagged) (enzyme)
chain: MALREFSSVKVGDQLPEKTYPLTRQDLVNYAGVSGDLNPIHWDDEIAKVVGLDTAIAHGMLTMGIGGGYVTSWVGDPGAVTEYNVRFTAVVPVPNDGKGAELVFNGRVKSVDPESKSVTIALTATTGGKKIFGRAIASAKLA
B4: binds [8].

B5: binds [9]; binds [10].
